The text below walks through data of patent US20260263645A1 (published 2026).

The experiment concerns the target TGFβ1 (UniProt P01137 279-390). The experiment can be described thus: radioligand plate binding; 89Zr-labeled.

Sequence of TGFβ1 (P01137 279-390): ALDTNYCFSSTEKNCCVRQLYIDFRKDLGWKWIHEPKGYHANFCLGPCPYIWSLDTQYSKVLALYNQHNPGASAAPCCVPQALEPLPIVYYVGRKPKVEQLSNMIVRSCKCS

B1: Fresolimumab (antibody, V domains shown)
VH: QVQLVQSGAEVKKPGSSVKVSCKASGYTFSSNVISWVRQAPGQGLEWMGGVIPIVDIANYAQRFKGRVTITADESTSTTYMELSSLRSEDTAVYYCASTLGLVLDAMDYWGQGTLVTVSS
VL: ETVLTQSPGTLSLSPGERATLSCRASQSLGSSYLAWYQQKPGQAPRLLIYGASSRAPGIPDRFSGSGSGTDFTLTISRLEPEDFAVYYCQQYADSPITFGQGTRLEIKR
As usually defined, the Kd is a measure of binding affinity in units of concentration. The molecule B1 displayed a Kd of 66 nM.
